Experimental findings from FireProtDB (doi:10.1021/bi00492a006) are described below.

The conditions of the data set: Bacillus amyloliquefaciens; pH 6.3; 25 °C; Urea; Fluorescence; MES-NaOH 50 mM; reversible: yes; whole UniProt chain shown.

B1: Ribonuclease wild type, P00648 (protein)
chain: MMKMEGIALKKRLSWISVCLLVLVSAAGMLFSTAAKTETSSHKAHTEAQVINTFDGVADYLQTYHKLPDNYITKSEAQALGWVASKGNLADVAPGKSIGGDIFSNREGKLPGKSGRTWREADINYTSGFRNSDRILYSSDWLIYKTTDHYQTFTKIR
With B1, the denaturant m value worked out at 2.21 kcal/mol/M, the “denaturant midpoint (higher = more stable)” value was 4.53 M and the unfolding free energy was determined as 10 kcal/mol.
